The target of the assay is ap2m1_rat Ap2m1 (UniProt P84092).
Sequence of ap2m1_rat Ap2m1 (P84092 whole entry): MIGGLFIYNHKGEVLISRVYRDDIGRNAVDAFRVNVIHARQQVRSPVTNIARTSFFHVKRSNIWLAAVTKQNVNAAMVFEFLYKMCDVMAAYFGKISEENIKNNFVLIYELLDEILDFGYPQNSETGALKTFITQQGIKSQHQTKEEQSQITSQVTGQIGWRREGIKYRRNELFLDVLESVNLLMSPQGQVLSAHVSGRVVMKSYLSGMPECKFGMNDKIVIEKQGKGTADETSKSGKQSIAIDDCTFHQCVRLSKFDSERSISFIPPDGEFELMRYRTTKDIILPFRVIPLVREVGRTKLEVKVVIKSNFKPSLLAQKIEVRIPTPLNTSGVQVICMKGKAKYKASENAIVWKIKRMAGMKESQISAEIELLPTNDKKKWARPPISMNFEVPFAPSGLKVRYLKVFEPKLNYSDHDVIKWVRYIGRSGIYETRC

Sequence of Trans-Golgi network integral membrane protein TGN38 (Rattus norvegicus (Rat)), P19814 S348A (P19814 whole entry S348A): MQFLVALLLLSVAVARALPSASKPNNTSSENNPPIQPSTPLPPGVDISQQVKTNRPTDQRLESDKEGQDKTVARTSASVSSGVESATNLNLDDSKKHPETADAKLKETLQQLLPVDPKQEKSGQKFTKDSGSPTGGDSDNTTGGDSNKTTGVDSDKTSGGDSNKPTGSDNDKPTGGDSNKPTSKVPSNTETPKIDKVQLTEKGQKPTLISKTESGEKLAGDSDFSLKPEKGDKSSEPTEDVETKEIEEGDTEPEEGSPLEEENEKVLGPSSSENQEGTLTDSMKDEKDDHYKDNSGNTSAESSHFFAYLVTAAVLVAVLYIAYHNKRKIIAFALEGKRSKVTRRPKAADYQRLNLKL
Sequence of Trans-Golgi network integral membrane protein TGN38 (Rattus norvegicus (Rat)), P19814 Y350A (P19814 whole entry Y350A): as the sequence (P19814 whole entry S348A) above, with A348S, Y350A counted along it

For “Trans-Golgi network integral membrane protein TGN38 (Rattus norvegicus (Rat)), P19814 S348A”, the “effect of a mutation on the interaction” value is given as “decreasing interaction”.

For “Trans-Golgi network integral membrane protein TGN38 (Rattus norvegicus (Rat)), P19814 Y350A”, the “effect of a mutation on the interaction” value was “decreasing interaction”.

These data come from IntAct's records for PubMed 9162036.
